How the values were obtained:
[1] = target: tomato pectin methylesterase PME1 (tomato) (UniProt P14280)
[2] = target: tomato pectin methylesterase PME1 (tomato) (UniProt P14280); test: SPR; tomato PME1 immobilised by amine coupling on a COOH5 chip (SensiQ Pioneer), VvPMEI1 injected at 2.3-300 nM, 25°C, 10 mM NaOAc pH 5.5, 0.1 M NaCl, 0.005% Tween-20; 1:1 interaction model
[3] = target: tomato pectin methylesterase PME1 (tomato) (UniProt P14280); test: SPR; tomato PME1 immobilised by amine coupling on a COOH5 chip (SensiQ Pioneer), VvPMEI1 injected at 2.3-300 nM, 25°C, 10 mM HEPES pH 7.5, 0.1 M NaCl, 0.005% Tween-20; 1:1 interaction model

Chain of UniProt P14280 (P14280 230-546): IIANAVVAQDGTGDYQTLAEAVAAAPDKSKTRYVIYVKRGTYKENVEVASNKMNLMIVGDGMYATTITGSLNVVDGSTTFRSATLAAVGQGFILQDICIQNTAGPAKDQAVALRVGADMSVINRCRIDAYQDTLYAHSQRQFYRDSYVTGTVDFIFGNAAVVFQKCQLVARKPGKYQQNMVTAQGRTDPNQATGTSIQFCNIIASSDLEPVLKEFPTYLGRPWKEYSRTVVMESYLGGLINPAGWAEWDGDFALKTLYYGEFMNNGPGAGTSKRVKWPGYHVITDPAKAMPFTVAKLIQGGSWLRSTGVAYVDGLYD

inhibitory activity (%) at pH 6.5, inhibition at pH 5.5 taken as 100% [1]: 100%
inhibitory activity (%) at pH 7.5, inhibition at pH 5.5 taken as 100% [1]: 84%
Kd [2]: 4.77 nM
koff [2]: 0.00317 s⁻¹
Kd [3]: 35 nM
koff [3]: 0.026 s⁻¹
Substance: VvPMEI1, pectin methylesterase inhibitor of Vitis vinifera (recombinant) (natural protein)
